# Measured values as given in publication PMC11555717 (Cancer Medicine, 2024).
# Assays:
# [1] = EV-203 safety/tolerability: adverse events; type: in vivo, human; details: for Treatment-related adverse event: Any: 1.25 mg/kg; for Treatment-related adverse event: Any / Treatment-emergent adverse event: Alopecia / Treatment-emergent adverse event: Anemia / Treatment-emergent adverse event: Any / Treatment-emergent adverse event: Aspartate aminotransferase increased / Treatment-emergent adverse event: Constipation / Treatment-emergent adverse event: Decreased appetite / Treatment-emergent adverse event: Diarrhea / Treatment-emergent adverse event: Hyperglycemia / Treatment-emergent adverse event: Hypokalemia / Treatment-emergent adverse event: Hyponatremia / Treatment-emergent adverse event: Hypophosphatemia / Treatment-emergent adverse event: Nausea / Treatment-emergent adverse event: Neutrophil count decreased / Treatment-emergent adverse event: Pneumonia / Treatment-emergent adverse event: Pruritus / Treatment-emergent adverse event: Pyrexia / Treatment-emergent adverse event: Rash / Treatment-emergent adverse event: Rash maculo-papular / Treatment-emergent adverse event: Vomiting / Treatment-emergent adverse event: White blood cell count decreased / Treatment-related adverse event of special interest: Corneal disorder/blurred vision / Treatment-related adverse event of special interest: Dry eye / Treatment-related adverse event of special interest: Hyperglycemia (composite) / Treatment-related adverse event of special interest: Infusion-related reaction / Treatment-related adverse event of special interest: Peripheral neuropathy (composite) / Treatment-related adverse event of special interest: Skin reaction (composite) / Treatment-related adverse event: Alopecia / Treatment-related adverse event: Anemia / Treatment-related adverse event: Aspartate aminotransferase increased / Treatment-related adverse event: Constipation / Treatment-related adverse event: Decreased appetite / Treatment-related adverse event: Diarrhea / Treatment-related adverse event: Hyperglycemia (preferred term) / Treatment-related adverse event: Hypokalemia / Treatment-related adverse event: Hyponatremia / Treatment-related adverse event: Hypophosphatemia / Treatment-related adverse event: Nausea / Treatment-related adverse event: Neutrophil count decreased / Treatment-related adverse event: Pruritus / Treatment-related adverse event: Rash / Treatment-related adverse event: Rash maculopapular / Treatment-related adverse event: White blood cell count decreased: N = 40
# Text: Safety assessments included physical and ophthalmologic examinations, clinical laboratory tests, 12‐lead electrocardiography, and ECOG PS.
# PFS was defined as the time from the start of the study treatment to the first documentation of objective tumor progression (i.e., progressive disease per RECIST version 1.1) by IRC or investigator assessment (whichever was specified) or to death due to any cause, whichever came first. OS was defined as the time from the start of study treatment to the date of death due to any cause. […] AEs of special interest were medical concepts of composite terms based on search criteria (standard Medical Dictionary for Regulatory Activities query or sponsor‐specific query/customized Medical Dictionary for Regulatory Activities query). For example, skin reactions included categories of rash and severe cutaneous adverse reactions (which included specific events such as drug eruption, eczema, dermatitis, mouth ulceration, stomatitis, etc.). Data for treatment‐related AEs (TRAEs) were evaluated by the investigator.
# All patients who received any amount of study drug were included in the primary analyses of efficacy endpoints and safety analyses.
# [2] = EV-203 immunogenicity: antitherapeutic antibodies (ATAs) against enfortumab vedotin; type: in vivo, human; details: 38 participants tested
# Procedure: In the PK cohort (i.e., PK analysis set), intensive PK sampling was performed wherein blood samples for analysis of ADC, total antibody (TAb), and free (unconjugated) MMAE were collected at prespecified time points. […] Blood samples for antitherapeutic antibodies (ATAs) were collected predose on Day 1 of cycles 1 to 4, 6, 8, 10, and within 30–37 days after the last study dose. Validated assays were used to measure concentrations of ADC, TAb, and free MMAE in serum or plasma and to assess ATA levels.
# Secondary endpoints were confirmed ORR by investigator assessment; DOR, disease control rate (DCR), and progression‐free survival (PFS) by IRC and investigator assessments; OS; incidence of ATAs to ADC; and safety/tolerability. PFS was defined as the time from the start of the study treatment to the first documentation of objective tumor progression (i.e., progressive disease per RECIST version 1.1) by IRC or investigator assessment (whichever was specified) or to death due to any cause, whichever came first. OS was defined as the time from the start of study treatment to the date of death due to any cause. […] Data for treatment‐related AEs (TRAEs) were evaluated by the investigator.
substance,measurement,setting,value
"enfortumab vedotin: fully human monoclonal ADC directed to Nectin-4, delivering intracellular monomethyl auristatin E (MMAE) to tumor cells","Treatment-related skin reactions grade 3, patients",[1]; 13 patients,32.5%
same,"Treatment-related peripheral neuropathy, patients","[1]; 15 patients, all events grade 1 or 2",37.5%
same,"Serious TRAEs, patients",[1]; 16 of 40 patients,40.0%
same,"Dose interruption due to TRAEs, patients",[1]; 22 of 40 patients,55.0%
same,"Dose reduction due to TRAEs, patients",[1]; 25 of 40 patients,62.5%
same,"Grade 3 or higher TRAEs, patients",[1]; 29 of 40 patients,72.5%
same,Treatment-related adverse event: Any,[1]; any grade,40 (100) n (%)
same,"Treatment-related hyperglycemia, patients","[1]; any grade, 22 patients",55.0%
same,"Treatment-related skin reactions, patients","[1]; any grade, 31 patients",77.5%
same,Treatment-emergent adverse event: Alopecia,[1]; any grade,12 (30.0) n (%)
same,Treatment-emergent adverse event: Anemia,[1]; any grade,28 (70.0) n (%)
same,Treatment-emergent adverse event: Any,[1]; any grade,40 (100) n (%)
same,Treatment-emergent adverse event: Aspartate aminotransferase increased,[1]; any grade,26 (65.0) n (%)
same,Treatment-emergent adverse event: Constipation,[1]; any grade,19 (47.5) n (%)
same,Treatment-emergent adverse event: Decreased appetite,[1]; any grade,26 (65.0) n (%)
same,Treatment-emergent adverse event: Diarrhea,[1]; any grade,19 (47.5) n (%)
same,Treatment-emergent adverse event: Hyperglycemia,[1]; any grade,20 (50.0) n (%)
same,Treatment-emergent adverse event: Hypokalemia,[1]; any grade,15 (37.5) n (%)
same,Treatment-emergent adverse event: Hyponatremia,[1]; any grade,13 (32.5) n (%)
same,Treatment-emergent adverse event: Hypophosphatemia,[1]; any grade,7 (17.5) n (%)
same,Treatment-emergent adverse event: Nausea,[1]; any grade,20 (50.0) n (%)
same,Treatment-emergent adverse event: Neutrophil count decreased,[1]; any grade,19 (47.5) n (%)
same,Treatment-emergent adverse event: Pneumonia,[1]; any grade,5 (12.5) n (%)
same,Treatment-emergent adverse event: Pruritus,[1]; any grade,14 (35.0) n (%)
same,Treatment-emergent adverse event: Pyrexia,[1]; any grade,15 (37.5) n (%)
same,Treatment-emergent adverse event: Rash,[1]; any grade,17 (42.5) n (%)
same,Treatment-emergent adverse event: Rash maculo-papular,[1]; any grade,6 (15.0) n (%)
same,Treatment-emergent adverse event: Vomiting,[1]; any grade,12 (30.0) n (%)
same,Treatment-emergent adverse event: White blood cell count decreased,[1]; any grade,16 (40.0) n (%)
same,Treatment-related adverse event of special interest: Corneal disorder/blurred vision,[1]; any grade,2 (5.0) n (%)
same,Treatment-related adverse event of special interest: Dry eye,[1]; any grade,3 (7.5) n (%)
same,Treatment-related adverse event of special interest: Hyperglycemia (composite),[1]; any grade,22 (55.0) n (%)
same,Treatment-related adverse event of special interest: Infusion-related reaction,[1]; any grade,2 (5.0) n (%)
same,Treatment-related adverse event of special interest: Peripheral neuropathy (composite),[1]; any grade,15 (37.5) n (%)
same,Treatment-related adverse event of special interest: Skin reaction (composite),[1]; any grade,31 (77.5) n (%)
same,Treatment-related adverse event: Alopecia,[1]; any grade,12 (30.0) n (%)
same,Treatment-related adverse event: Anemia,[1]; any grade,27 (67.5) n (%)
same,Treatment-related adverse event: Aspartate aminotransferase increased,[1]; any grade,25 (62.5) n (%)
same,Treatment-related adverse event: Constipation,[1]; any grade,16 (40.0) n (%)
same,Treatment-related adverse event: Decreased appetite,[1]; any grade,25 (62.5) n (%)
same,Treatment-related adverse event: Diarrhea,[1]; any grade,19 (47.5) n (%)
same,Treatment-related adverse event: Hyperglycemia (preferred term),[1]; any grade,19 (47.5) n (%)
same,Treatment-related adverse event: Hypokalemia,[1]; any grade,14 (35.0) n (%)
same,Treatment-related adverse event: Hyponatremia,[1]; any grade,12 (30.0) n (%)
same,Treatment-related adverse event: Hypophosphatemia,[1]; any grade,7 (17.5) n (%)
same,Treatment-related adverse event: Nausea,[1]; any grade,20 (50.0) n (%)
same,Treatment-related adverse event: Neutrophil count decreased,[1]; any grade,19 (47.5) n (%)
same,Treatment-related adverse event: Pruritus,[1]; any grade,14 (35.0) n (%)
same,Treatment-related adverse event: Rash,[1]; any grade,17 (42.5) n (%)
same,Treatment-related adverse event: Rash maculopapular,[1]; any grade,6 (15.0) n (%)
same,Treatment-related adverse event: White blood cell count decreased,[1]; any grade,16 (40.0) n (%)
same,"Treatment-related hyperglycemia grade 3, patients",[1]; four patients,10.0%
same,Treatment-related adverse event: Any,[1]; grade ≥ 3,29 (72.5) n (%)
same,Treatment-emergent adverse event: Alopecia,[1]; grade ≥ 3,0 n (%)
same,Treatment-emergent adverse event: Anemia,[1]; grade ≥ 3,6 (15.0) n (%)
same,Treatment-emergent adverse event: Any,[1]; grade ≥ 3,30 (75.0) n (%)
same,Treatment-emergent adverse event: Aspartate aminotransferase increased,[1]; grade ≥ 3,1 (2.5) n (%)
same,Treatment-emergent adverse event: Constipation,[1]; grade ≥ 3,0 n (%)
same,Treatment-emergent adverse event: Decreased appetite,[1]; grade ≥ 3,1 (2.5) n (%)
same,Treatment-emergent adverse event: Diarrhea,[1]; grade ≥ 3,2 (5.0) n (%)
same,Treatment-emergent adverse event: Hyperglycemia,[1]; grade ≥ 3,3 (7.5) n (%)
same,Treatment-emergent adverse event: Hypokalemia,[1]; grade ≥ 3,2 (5.0) n (%)
same,Treatment-emergent adverse event: Hyponatremia,[1]; grade ≥ 3,5 (12.5) n (%)
same,Treatment-emergent adverse event: Hypophosphatemia,[1]; grade ≥ 3,5 (12.5) n (%)
same,Treatment-emergent adverse event: Nausea,[1]; grade ≥ 3,0 n (%)
same,Treatment-emergent adverse event: Neutrophil count decreased,[1]; grade ≥ 3,8 (20.0) n (%)
same,Treatment-emergent adverse event: Pneumonia,[1]; grade ≥ 3,5 (12.5) n (%)
same,Treatment-emergent adverse event: Pruritus,[1]; grade ≥ 3,2 (5.0) n (%)
same,Treatment-emergent adverse event: Pyrexia,[1]; grade ≥ 3,0 n (%)
same,Treatment-emergent adverse event: Rash,[1]; grade ≥ 3,5 (12.5) n (%)
same,Treatment-emergent adverse event: Rash maculo-papular,[1]; grade ≥ 3,4 (10.0) n (%)
same,Treatment-emergent adverse event: Vomiting,[1]; grade ≥ 3,0 n (%)
same,Treatment-emergent adverse event: White blood cell count decreased,[1]; grade ≥ 3,5 (12.5) n (%)
same,Treatment-related adverse event of special interest: Corneal disorder/blurred vision,[1]; grade ≥ 3,0 n (%)
same,Treatment-related adverse event of special interest: Dry eye,[1]; grade ≥ 3,0 n (%)
same,Treatment-related adverse event of special interest: Hyperglycemia (composite),[1]; grade ≥ 3,5 (12.5) n (%)
same,Treatment-related adverse event of special interest: Infusion-related reaction,[1]; grade ≥ 3,0 n (%)
same,Treatment-related adverse event of special interest: Peripheral neuropathy (composite),[1]; grade ≥ 3,0 n (%)
same,Treatment-related adverse event of special interest: Skin reaction (composite),[1]; grade ≥ 3,13 (32.5) n (%)
same,Treatment-related adverse event: Alopecia,[1]; grade ≥ 3,0 n (%)
same,Treatment-related adverse event: Anemia,[1]; grade ≥ 3,6 (15.0) n (%)
same,Treatment-related adverse event: Aspartate aminotransferase increased,[1]; grade ≥ 3,1 (2.5) n (%)
same,Treatment-related adverse event: Constipation,[1]; grade ≥ 3,0 n (%)
same,Treatment-related adverse event: Decreased appetite,[1]; grade ≥ 3,1 (2.5) n (%)
same,Treatment-related adverse event: Diarrhea,[1]; grade ≥ 3,2 (5.0) n (%)
same,Treatment-related adverse event: Hyperglycemia (preferred term),[1]; grade ≥ 3,3 (7.5) n (%)
same,Treatment-related adverse event: Hypokalemia,[1]; grade ≥ 3,2 (5.0) n (%)
same,Treatment-related adverse event: Hyponatremia,[1]; grade ≥ 3,5 (12.5) n (%)
same,Treatment-related adverse event: Hypophosphatemia,[1]; grade ≥ 3,4 (10.0) n (%)
same,Treatment-related adverse event: Nausea,[1]; grade ≥ 3,0 n (%)
same,Treatment-related adverse event: Neutrophil count decreased,[1]; grade ≥ 3,8 (20.0) n (%)
same,Treatment-related adverse event: Pruritus,[1]; grade ≥ 3,2 (5.0) n (%)
same,Treatment-related adverse event: Rash,[1]; grade ≥ 3,5 (12.5) n (%)
same,Treatment-related adverse event: Rash maculopapular,[1]; grade ≥ 3,4 (10.0) n (%)
same,Treatment-related adverse event: White blood cell count decreased,[1]; grade ≥ 3,5 (12.5) n (%)
same,"Dose interruption due to fatigue, patients",[1]; most common TRAE leading to dose interruption,10.0%
same,"Dose reduction due to rash, patients",[1]; most common TRAE leading to dose reduction,22.5%
same,"Hyperglycemia leading to treatment discontinuation, patients",[1]; one patient,2.5%
same,"Treatment-related hyperglycemia grade 4, patients",[1]; one patient,2.5%
same,"Death due to a TRAE, patients","[1]; one patient, acute coronary syndrome",2.5%
same,"Treatment discontinuation due to TRAEs, patients","[1]; two patients: acute coronary syndrome, hyperglycemia and rash",5.0%
same,"Deaths following malignant neoplasm progression, patients","[1]; two patients, not considered treatment-related",5.0%
same,Incidence of positive ATAs postbaseline,[2],0%
